Source: patent US20230279126A1 (published 2023)
Where a chain is given by its changes, count along the chain named.

B1: hIL12Rb1_VHH1 (VHH)
VHH: QVQLQESGGGSVQAGGSLRLSCVASGYGYCGYDMSWYRQAPGKEREFVALITSDRSISYEDSVKARFIISRDNAANTGYLDMTRLTPDDTAIYYCKTSAAARESSWCRSRYRVASWGQGTQVTVSS
notes: Phagemid clone with his-tag, periplasmic extract
B2: mIL23R VHH3 (VHH)
VHH: QVQLQESGGGSVQAGGSLRLSCTASVNTYCEYNMSWYRQAPGKEREFVSGVDSDGSTRYSESVKGRFTISQDNAKNTMYLQMNGLKPEDTAMYYCKTYVCTFCSGNSCYYEYKYYYEGQGTQVTVSS
notes: as for B1
B3: mIL23R VHH12 (VHH)
VHH: QVQLQESGGGSVQAGGSLRLSCAASGYTYSSCTMGWYRQAPGKERELVSMLISDGSTFYADSVKGRFTFSQENAKNTVYLQMNSLKPEDTAMYYCGCATLGSRTVWGQGTQVTVSS
notes: as for B1
B4: mIL23R VHH11 (VHH)
VHH: B3 VHH with N76S
notes: as for B1
B5: mIL23R VHH36 (VHH)
VHH: B3 VHH with Y27D, E46D, L51V, I52F, V105I
notes: as for B1
B6: mIL23R VHH8 (VHH)
VHH: B3 VHH with A23T, G26R, L51V, I52F, V105I
notes: as for B1
B7: mIL23R VHH15 (VHH)
VHH: B3 VHH with L51V, I52F, V105I
notes: as for B1
B8: mIL23R VHH25 (VHH)
VHH: B3 VHH with Y94F
notes: as for B1
B9: mIL23R VHH10 (VHH)
VHH: B3 VHH with Y27D, E46D, I52M, S53G, V105I
notes: as for B1
B10: mIL23R VHH27 (VHH)
VHH: B3 VHH with F69S
notes: as for B1
B11: mIL23R VHH1 (VHH)
VHH: B3 VHH with N73Y
notes: as for B1
B12: mIL23R VHH16 (VHH)
VHH: B3 VHH with Y27D, E46D, I52M, S53G, S84N, V105I
notes: as for B1
B13: mIL23R VHH29 (VHH)
VHH: QVQLQESGGGLVQPGGSLRLSCAASGFTFSTSAMTWVRQAPGKGLDWVSGIDSGGTTVYADSVKGRFTISKDNAKNTLYLQMNSLKTEDTAVYYCATGLPWGNTWRTRGQGTQVTVSS
notes: as for B1
B14: mIL23R VHH37 (VHH)
VHH: B13 VHH with A24T, T31S, S32G, R108T
notes: as for B1
B15: mIL23R VHH20 (VHH)
VHH: B13 VHH with T31S, F67A, S70L
notes: as for B1
B16: mIL23R VHH33 (VHH)
VHH: B13 VHH with A23T, A24T, T31S, R108T
notes: as for B1
B17: mIL23R VHH39 (VHH)
VHH: B13 VHH with T31R, K71R, N73S, S84G, T97I
notes: as for B1
B18: mIL23R VHH41 (VHH)
VHH: B13 VHH with S21T
notes: as for B1
B19: mIL23R VHH7 (VHH)
VHH: B13 VHH with T31R, K71R, N73S, T97I
notes: as for B1
B20: mIL23R VHH21 (VHH)
VHH: B13 VHH with A24T, T31S, R108T
notes: as for B1
B21: mIL23R VHH14 (VHH)
VHH: B13 VHH with S30R, K71R, N73S, T97M
notes: as for B1
B22: mIL23R VHH35 (VHH)
VHH: B13 VHH with S21A, A23S, T31S, F67A, S70L
notes: as for B1
B23: mIL23R VHH38 (VHH)
VHH: B13 VHH with T104I
notes: as for B1
B24: mIL23R VHH32 (VHH)
VHH: B13 VHH with Q13R, T31R, K71R, N73S, T97I
notes: as for B1
B25: mIL23R VHH4 (VHH)
VHH: QVQLQESGGGSVQAGGSLRLSCAASGYTYSNNCMGWFRQAPGKDRERIANIYTGGGRTTYADSVKGRFTISQDSAKSTVYLQMNSLKPEDTAMYYCAAGSCGSARSEYSYWGQGTQVTVSS
notes: as for B1
B26: mIL23R VHH18 (VHH)
VHH: QVQLQESGGGLVQPGGSLRLSCAASGFTFRLTAMRWVRQAPGKGLEWVSGIDSRGSTIYADSVKGRFTISKDNAKNTLYLQLNSLKTEDTAMYYCAQGVYGDTYSGSQGTQVTVSS
notes: as for B1
B27: mIL23R VHH46 (VHH)
VHH: B26 VHH with T32S, N73D
notes: as for B1
B28: mIL23R VHH17 (VHH)
VHH: B26 VHH with L11S, P14A
notes: as for B1
B29: mIL23R VHH44 (VHH)
VHH: B26 VHH with T32S, L45F
notes: as for B1
B30: mIL23R VHH45 (VHH)
VHH: B26 VHH with T32S, K64E
notes: as for B1
B31: mIL23R VHH19 (VHH)
VHH: B26 VHH with T32S
notes: as for B1
B32: mIL23R VHH28 (VHH)
VHH: B26 VHH with K71R, T90A
notes: as for B1
B33: mIL23R VHH2 (VHH)
VHH: B26 VHH with L11S, P14A, R19T, A23T, S25P, T32A
notes: as for B1
B34: mIL23R VHH30 (VHH)
VHH: B26 VHH with Q108L
notes: as for B1
B35: mIL23R VHH23 (VHH)
VHH: B26 VHH with T28N, T32Y, L45V, R54G
notes: as for B1
B36: mIL23R VHH34 (VHH)
VHH: B26 VHH with Y104H
notes: as for B1
B37: mIL23R VHH40 (VHH)
VHH: B26 VHH with T87S
notes: as for B1
B38: mIL23R VHH31 (VHH)
VHH: B26 VHH with K71R
notes: as for B1
B39: mIL23R VHH9 (VHH)
VHH: B26 VHH with A24T, L45V, R54A, L82M
notes: as for B1
B40: mIL23R VHH13 (VHH)
VHH: B26 VHH with A24T, T32A
notes: as for B1
B41: mIL23R VHH42 (VHH)
VHH: B26 VHH with R30S, L31N, T32Y
notes: as for B1
B42: mIL23R VHH26 (VHH)
VHH: QVQLQESGGGSVQAGGSLRLSCAASGYTFCMAWFRQAPGKEREGVARFYTRDGYTYYSDSVKGRFTISQNNAKNTLYLQMNSLKSEDTAMYYCAADLTRCSSNKNDFRYWGQGTQVTVSS
notes: as for B1
B43: mIL23R VHH22 (VHH)
VHH: B42 VHH with G53S
notes: as for B1
B44: mIL23R VHH43 (VHH)
VHH: B42 VHH with N70D
notes: as for B1
B45: mIL23R VHH24 (VHH)
VHH: B42 VHH with A24V, D59G
notes: as for B1
B46: mIL23R VHH5 (VHH)
VHH: B42 VHH with T98A
notes: as for B1
B47: mIL23R VHH6 (VHH)
VHH: QVQLQESGGGSVQAGGSLRLSCAASGYTSGNYWMGWFRQAPGKEREGVATLWTGGASTFYGDSVKGRFTISRDNFKNTLYLQMNSLKVEDTAMYYCAADPALRLGANILRPAEYKYWGQGTQVTVSS
notes: as for B1

molecular target: T1, extracellular domain of human IL12RB1 (hIL12Rb1 ECD) (human, UniProt P42701 24-545); assay: periplasmic extract ELISA (PE-ELISA) of phage clones, colorimetric
T1 construct: The immunogen was a fusion of the ECD with the human IgG1 hinge and Fc; also called IL12Rβ1; CD212
Outline: (§1)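 VHH domains were obtained from camels immunized sequentially with human and mouse receptor extracellular domain–Fc fusion proteins, then cloned with a his-tag into a phagemid in E. coli. The phage library was panned over several rounds on the human or mouse extracellular domain, and single clones were checked for selective binding by colorimetric periplasmic extract ELISA.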

| Binder | binding result |
| --- | --- |
| B1 | binds |

molecular target: T2, extracellular domain of mouse IL23R (mIL23R ECD) (mouse, UniProt Q8K4B4 24-374); assay: as above
T2 construct: The immunogen was an ECD-human IgG1 hinge-Fc fusion
T2 sequence: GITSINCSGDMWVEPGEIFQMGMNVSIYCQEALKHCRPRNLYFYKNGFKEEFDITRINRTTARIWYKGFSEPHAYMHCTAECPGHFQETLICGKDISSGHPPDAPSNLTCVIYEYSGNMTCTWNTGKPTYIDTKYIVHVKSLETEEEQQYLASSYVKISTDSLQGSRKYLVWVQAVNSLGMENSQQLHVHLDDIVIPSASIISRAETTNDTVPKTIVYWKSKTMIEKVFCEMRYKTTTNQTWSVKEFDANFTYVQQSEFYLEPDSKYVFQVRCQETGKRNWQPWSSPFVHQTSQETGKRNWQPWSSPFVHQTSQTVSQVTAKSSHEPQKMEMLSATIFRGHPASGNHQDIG
Outline: as §1

| Binder | binding result |
| --- | --- |
| B2 | binds |
| B3 | binds |
| B4 | binds |
| B5 | binds |
| B6 | binds |
| B7 | binds |
| B8 | binds |
| B9 | binds |
| B10 | binds |
| B11 | binds |
| B12 | binds |
| B13 | binds |
| B14 | binds |
| B15 | binds |
| B16 | binds |
| B17 | binds |
| B18 | binds |
| B19 | binds |
| B20 | binds |
| B21 | binds |
| B22 | binds |
| B23 | binds |
| B24 | binds |

| Binder | binding result |
| --- | --- |
| B25 | binds |
| B26 | binds |
| B27 | binds |
| B28 | binds |
| B29 | binds |
| B30 | binds |
| B31 | binds |
| B32 | binds |
| B33 | binds |
| B34 | binds |
| B35 | binds |
| B36 | binds |
| B37 | binds |
| B38 | binds |
| B39 | binds |
| B40 | binds |
| B41 | binds |
| B42 | binds |
| B43 | binds |
| B44 | binds |
| B45 | binds |
| B46 | binds |
| B47 | binds |
